Assay results: publication PMC4885069
Where “and” joins values, the source holds several entries; their conditions need not be identical. Identical values can stand only once. Like-named read-outs stand apart in the source and are kept apart here.

How the values were obtained:
[1] = target: synaptotagmin LD (Rattus norvegicus) (UniProt P29101); experiment: ITC; conditions: cited from earlier work
[2] = target: GST-hSV2C 455-579 (human synaptic vesicle glycoprotein 2C, luminal domain 4, GST fusion) (UniProt Q496J9); conditions: 25 °C, PBS (composition not given) at pH 7.3, 150 mM NaCl at pH 5.0
Sequence of UniProt Q496J9 (Q496J9 whole entry, the tested form may be a part): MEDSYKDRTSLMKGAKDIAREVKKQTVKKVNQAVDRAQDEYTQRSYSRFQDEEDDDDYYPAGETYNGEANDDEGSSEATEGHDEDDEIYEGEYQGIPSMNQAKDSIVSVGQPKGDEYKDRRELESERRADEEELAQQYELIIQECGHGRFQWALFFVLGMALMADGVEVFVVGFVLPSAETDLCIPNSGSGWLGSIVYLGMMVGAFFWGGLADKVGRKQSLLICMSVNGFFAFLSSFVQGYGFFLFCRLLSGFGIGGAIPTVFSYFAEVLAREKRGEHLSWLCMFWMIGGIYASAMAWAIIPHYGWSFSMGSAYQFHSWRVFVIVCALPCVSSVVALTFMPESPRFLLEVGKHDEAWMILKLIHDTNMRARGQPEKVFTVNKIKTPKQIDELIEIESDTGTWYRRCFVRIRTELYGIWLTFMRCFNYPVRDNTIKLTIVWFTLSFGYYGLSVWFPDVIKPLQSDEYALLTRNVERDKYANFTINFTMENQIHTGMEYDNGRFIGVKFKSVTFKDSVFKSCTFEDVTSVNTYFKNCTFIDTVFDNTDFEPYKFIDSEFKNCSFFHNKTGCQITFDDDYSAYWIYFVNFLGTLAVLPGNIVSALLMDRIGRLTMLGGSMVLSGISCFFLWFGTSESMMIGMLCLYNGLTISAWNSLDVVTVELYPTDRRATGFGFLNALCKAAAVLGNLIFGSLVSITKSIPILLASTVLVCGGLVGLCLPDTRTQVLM

[3] = target: GST-hSV2C 455-579 (human synaptic vesicle glycoprotein 2C, luminal domain 4, GST fusion) (UniProt Q496J9); experiment: SPR (Biacore X100), kinetic evaluation; conditions: pH 7.3; 25 °C; PBS (composition not given) at pH 7.3; PBS (pH 7.3)

Sequence of UniProt P29101 (P29101 1-60): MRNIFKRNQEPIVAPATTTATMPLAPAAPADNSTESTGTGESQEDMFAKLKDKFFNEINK

Substance | Kd [1] | KD Steady State ([2]; pH 5.0) | KD Steady State ([2]; pH 7.3) | KD Kinetics [3] | ka [3] | kd [3]
BoNT/B (from UniProt P10844) | 140 nM and 34 nM | – | – | – | – | –
Botulinum neurotoxin serotype A HC fragment (HCA / HCAS), 50 kDa cell-binding domain | – | > 1200 nM | 400 nM | 390 nM | 310000 M⁻¹ s⁻¹ | 0.12 s⁻¹
